Measured values published in the nanobody polyreactivity screen of Harvey et al. (2022).

Assay: yeast display, Sf9 membrane polyspecificity reagent, FACS + sequencing; frameworks hold sequencing errors
How it was run: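 Galactose-induced (36–48 hours) yeast carrying a synthetic nanobody display library were exposed to 10% biotinylated, detergent-solubilized Sf9 membrane reagent at 4 °C for 1 hour. FACS followed streptavidin microbead enrichment, using low and high (top ~1%) gates for expression (anti-HA) and reagent binding (streptavidin). Colony PCR, MiSeq 2 × 250 sequencing and CDR-length filtering followed. Labels for polyreactivity reflect the gate of origin.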

Row | Sequence | polyreactivity (PSR sort gate)
1 | QVQLVESRGGLVQAGGSVRLSFAASGRILKYNAMGWYRQAPGKERELVAAISYRGGSTYYADSVKGRFTISRDNAKNTVYLQMNSLKPEDTAVYYCAALTESTSYGYWGQGTQVTVSS | low polyreactivity
2 | QVQLVESRGRLVQAVGSLRLSCAASGFTFDSYPMGWYRHAPRKEMEFVAGITDLGDYTYYADSVKGRFTISRDTAKNTVFLQMKSLKPEDTEVYYCNDTTGYKHAWRCENGYWGQGTQVTVSS | low polyreactivity
3 | QVQLVESSGGLVQAGGSLRLSCAASGRTFSRNAMGWYRQAPGKERELVAAITYSGGTTYYADSVKGRFTISRDNAKNTVYLQMNSLKPEDTAVYYCATPSRKSGVGYPSYNYWGQGTQVTVSS | high polyreactivity
4 | QVQLVESSGGLVQAGGSLRLSCADSGIIFQNYEMGWYRQAPGKDRELVAAITGSGGSTYYADSVKGRFTISRDNAKNTVYLQMNSLKPEDTAVDYCNADWEYYGKSDYWGQGTQVTVAS | low polyreactivity
5 | QVQLVESSGGLVQAGGSLRLSCAHSGIIFYCYAMGCYRHSPGNLRELVAAISNNGGSTYPDSVKGRFTISRDNAKNTVYLQMNSLKPEDTAVYYGDAHPTGGVGFDAYYWGQGTQVTVSS | low polyreactivity
6 | QVQLVESSGGLVQAGGSLSLSCADSGIIFYRYAMGWYIQAQGQERELVAAITWSGVSTSYADSVKGRFTISRDNAKNTVSIQMNSLKPEDTAVYYCNKDPGTLYGDMDSWGQGTQVTVSS | low polyreactivity
7 | QVQLVESVGCLVQAGGSLRLSCATSGSIFRYYTMGWYRQPPGKERELVARISSSGSTNYADSVKGRFTISRDNGKNTVYLQMNSLKPEDTAVYYCAARGFSWAGYFYWGQGTQVTVSS | low polyreactivity
8 | QVQLVESVGGIVQAGGSLRLSCAASGRTFYVYAMGWYRQARGKERELVASIRWRGSTYYADSVKGRFTISRDNAKNTVYLKMNSLKPEDTAVYYCAARYPYELGFDYWGQGTQVTVSS | low polyreactivity
9 | QVQLVESVGGLLQAGGSLRLSCAASGSIFDVYTMGWYRQAPGKVRELFAAINTGGGSTYYADSVKGRFTISRDNAKNTVYCQMNSLKPEVTAVYYCAASVYHYGPLYYWGQGTQVTVSS | low polyreactivity
10 | QVQLVESVGGLVLAGGSLRLSCAASGSIFIVNAMGWYRQAPGKERELVAAISGRGGNTNYADSVKGRFTISRDNAKNTVYLQMNSLKPEDTAVYYCAARHTRDYDYWGQGTQVTVSS | low polyreactivity
11 | QVQLVESVGGLVQAGCSLRLSCAASGSTFEVYAMGWYRQAPGKESELVATITWSGGSTYYADSVKGRFTISRDNAKTTVYLQMNSLKPEDTAVYYCNAVIRYYFWGKYYLYYYWGQGTQVTVSS | high polyreactivity
12 | QVQLVESVGGLVQAGGILRLSCGASGRTFTGYTMRWYRQEPGKERELVATISRRGRSTYYADSVKGRFTISRDNAKNTVYLQMNSLKPEDTAVYYCAAEKPRAVYFEYDYWGLGTQVTVSS | high polyreactivity
13 | QVQLVESVGGLVQAGGRLRLSCAASGSTFRYYAMGRYRPATGKESELVAAISRSGGSTYYADSVKGRFTISRDNAKNTVYLQMNSLKTEDTAVYYSNGRYYTFYSIYDYWGQGTQVTVSS | high polyreactivity
14 | QVQLVESVGGLVQAGGSLLLSCAASGFTFGPYAMGWYRQAPGKERELVAAISRSGGSTYYSDSVKGRFTISRYNAKNTVYLQLNSLKPEDTAVYYCAACSAYLWGQGTQVTVSS | low polyreactivity
15 | QVQLVESVGGLVQAGGSLRLICAASGSIFGVYAMGWYRQAPGKERELVAVIRWRGGSTYYADSVKGRFTISRDYAKNTVFLQMNILKPEDTAVYYCAARLHIVVATYDRRYDYWGQGTQVTVSS | low polyreactivity
16 | QVQLVESVGGLVQAGGSLRLICAASGSIFVPNTMGWYRQAPGKERELVAAINISGGNTYYADSVKGRFTISRDNAKNTVYLQMNSLKPEDTAVYYCAAVWFKVWSFAGDWGQGTQVTVSS | low polyreactivity
17 | QVQLVESVGGLVQAGGSLRLICAASGSTFPSYAMGWYRQAPGKEREVVAAINSGGGTNYADSVKGRFTISRDNAKYTVYLQMNSLKPEDTAVYYCAKSRYDYTKTEGGYWGQGTQVTVSS | low polyreactivity
18 | QVQLVESVGGLVQAGGSLRLSCAASAFNFDYNAMGWYRQAPGKERELVAVISSSGSRTYYADSVKGRFTISRDNAKNTVYLQMNSLKPEDTAVYYCAAARIGTLDYWGQGTQVTVSS | high polyreactivity
19 | QVQLVESVGGLVQAGGSLRLSCAASGFIFGYNAMGWYRQAPGKERELVAAIDSGDSTYYADSVKGRFTISRDNAKNTVYLQMNSLKPEDTAVYFCATDVTFVYDFGYFQYDYWGQGTQVTVSS | low polyreactivity
20 | QVQLVESVGGLVQAGGSLRLSCAASGFIFWDYAMGWYRQAPGKERELVAAISDSGGDTYYADSVKGRFTISRDIAKNTVYLQMNSLKPEDTAVYYCAADVELWVFRGQQYDYWGQGTQVTVSS | low polyreactivity
21 | QVQLVESVGGLVQAGGSLRLSCAASGFTFHGYAMGWYRQAAGKERELVAAIRSGDRTYYADSVKGRFTISRDNAKNTVYLQMNSLKPEDTAVYYCDAGSYFRDSYARIYRWFYYWGQGTQVTVSS | low polyreactivity

Row | Sequence | polyreactivity (PSR sort gate)
22 | QVQLVESVGGLVQAGGSLRLSCAASGFTFSSYSMGWYRQAPGKERELVAAITISGGRTYYADSVKGRFTISRDNAKNTVYLQMNSLKPEDTAVYYCAARYVEGQNHYGYRGQGTQVTVSS | high polyreactivity
23 | QVQLVESVGGLVQAGGSLRLSCAASGFTFVDNAMGWYRQAPGKERELVAAISWTGVGSTYYADSVKGRFTISRDNAKNTVYLQMNSLKPEETAVYYCAADGLSRGVPDEFDYWGQGTQVTVSS | low polyreactivity
24 | QVQLVESVGGLVQAGGSLRLSCAASGGKFISYAMGRYRQAPRKERELVAAITSSGGSTYDADSVKGRFTISRDDAKNTVYLQMNSLKPEDTGVYYCAADHSTVLDVGSWGQGTQVTVSS | low polyreactivity
25 | QVQLVESVGGLVQAGGSLRLSCAASGGMGWYRQAPGKERELVATISSVGSTNYADSVKGRFTISRDNAKNTVYLQMNSLKPEDTAVYYCNATGVQYFLYGYWGQGTQVTVSS | low polyreactivity
26 | QVQLVESVGGLVQAGGSLRLSCAASGGTFQHYTMGWYRQAPGKERELVAAISLSGTRTYYADSVKGRFTISRDNAKNTVYLQMNSLKPEDTAVYYCAARYGVEYWGQGTQVTVSS | low polyreactivity
27 | QVQLVESVGGLVQAGGSLRLSCAASGITFRWNAMGRYRQATGKERELVAAIRRSGRTYYADSVKGRFTISRDNAKNTVYLQMNSLKPEDTAVYYCAAVSGYRSSKYDYWGQGTQVTVSS | high polyreactivity
28 | QVQLVESVGGLVQAGGSLRLSCAASGITFWKYTMGWYRQAPGKERELVAAITGRGGSTYYADSVKGRFTISRDNAKNTVYLQMNSLKPEDTAVYYCAADPYHLQTRFSGLAEFYYWGQGTQVTVSS | low polyreactivity
29 | QVQLVESVGGLVQAGGSLRLSCAASGITFYKYAMGWYRQAPGKERELVASIDRVGITNYADSVKGRFTISRDNAKNTVYLQMNSLKPEDTAVFYCNADYYRYYSITYGGDYWGQGTQVTVSS | high polyreactivity
30 | QVQLVESVGGLVQAGGSLRLSCAASGITFYWYAMGWYRQAPGKERELVASITGNGGGTSYADSVKGRFTISRDNAKNTVYLQMNSLKPEDTAVYYCNTSVGGKEYDSWGQGTQVTVSS | low polyreactivity
31 | QVQLVESVGGLVQAGGSLRLSCAASGLIFFGNTMGWYRQAPGKDRELVAAISKRGTTYYADSVKGRFKISRDNAKNTVYLQMNSLKPEDTAVYYCAAGGTFFHRLDYYYRSDYWGQGTQVTVSS | high polyreactivity
32 | QVQLVESVGGLVQAGGSLRLSCAASGLILRFYAMVWYRQAPGKERELVAAISRNGGSTYYADSVKGRFTISRDNAKNTVYLQMNSLKPEDTAVYYCAVEYYVSWKLDYWGQGTQVTVSS | high polyreactivity
33 | QVQLVESVGGLVQAGGSLRLSCAASGRIFEVYVMGWYRQAPGKERELVAAISTGGSTYYADSVKGRFTISRDNAKNTVYLQMNSLKPEDTAVYYCAARKTRRYGSGHDYWGQGTQVTVSS | high polyreactivity
34 | QVQLVESVGGLVQAGGSLRLSCAASGRIFHRYTMGWYRQAPGKEREFVAAITTRAGSTYYADSVKGRFTISRDNAKNTVYLQMNSLKPEDTAVYYCNIRRHSLYGGTTTRYDYWGQGTQVTVSS | high polyreactivity
35 | QVQLVESVGGLVQAGGSLRLSCAASGRIFLVYVMGWYRQAPGKERELVAAISASDGSTYYADSVKGRFTISRDNAKNTVYLQMNSLKPEDTAVYYCAEWGYSLDSNSYRELNYWGQGTQVTVSS | low polyreactivity
36 | QVQLVESVGGLVQAGGSLRLSCAASGRTFRTYTMGWYRQAPGKERGLVAAITSTGSTYYADSVKGRFTISRDNAKNTVYLQMNSLKPEDTAVYYCNVVRRLRPYRGTGPNLEYYYWGQGTQVTVSS | high polyreactivity
37 | QVQLVESVGGLVQAGGSLRLSCAASGRTFRYYAMGWYRQAPGKERELVAAISKTGGSTYYADSVKGRFTISRDNAKNTVYLQMNSLKPEDTAVYYCAAQSGWGYSTYYYWGQGTQVTVSS | high polyreactivity
38 | QVQLVESVGGLVQAGGSLRLSCAASGRTFVLNTMGWYRQAPGKERELVAAISKSGGSTYYADSVKGRFTISRDNAKNTVYLQMNSLKPEDTAVYYCAARTRQLEYNSWGEGTQVTVSS | high polyreactivity
39 | QVQLVESVGGLVQAGGSLRLSCAASGRTFVVYAMGWYRQEPGKERELVAAIRVSDGSTYYADSEKGRFTISREISKNTVYLQMNSLNPEDTAVYYCNAESFRGFYYWGQGTQVTVSS | high polyreactivity
40 | QVQLVESVGGLVQAGGSLRLSCAASGRTIRWYAMGWYRQAPGKERELVAAITFRGGRTYYADSVKGRFTISRDNEKNTVYLQMNSMKPEDTAVYYCNAVTYSSPYRFDYWGQGTQVTLSS | low polyreactivity
41 | QVQLVESVGGLVQAGGSLRLSCAASGRTISRNAMGWYRQAPGKERELVAAISASGGRTYYADSVKGRFTISRDNAKNTVYLQMKSLKPEDTEVYFCAASTTGYRYYDYCGQGTQVTVSS | high polyreactivity
